This passage reports log10 ratio and IC50 results from publication PMC8748714 (2022).

The target of experiment [1] is exendin-P5. The experiment is described as follows: radioligand competition binding on whole cells. The settings on record: parent: est. 0; read off a plot. A general note: In a radioligand displacement assay an active substance lowers the binding of a labelled ligand.
In experiment [2] the target is exendin-P5. The experiment is described as follows: radioligand competition binding on whole cells. As to conditions: parent: est. 0; read off a plot. This is another data set of the same source.
Experiment [3] deals with cMyc-GLP-1R Y148A (human) (UniProt P43220).
The target of experiment [4] is GLP-1R P137A (Homo sapiens).
In experiment [5] the target is GLP-1R H212A (Homo sapiens).
The target of experiment [6] is GLP-1R Q211A (Homo sapiens).
The target in experiment [7] is GLP-1R Y145A (Homo sapiens).
For experiment [8], the target named is cMyc-GLP-1R R190A (human) (UniProt P43220).
Experiment [9] concerns the target GLP-1R E138A (Homo sapiens).
For experiment [10], the target named is GLP-1R V194A (Homo sapiens).
In experiment [11] the target is GLP-1R Q210A (Homo sapiens).
The target of experiment [12] is GLP-1R Y205A (Homo sapiens).
Experiment [13] has as its target GLP-1R L142A (Homo sapiens).
The target of experiment [14] is GLP-1R L144A (Homo sapiens).
Experiment [15] addresses cMyc-GLP-1R K197A (human) (UniProt P43220).
The target in experiment [16] is GLP-1R D198A (Homo sapiens).
The target in experiment [17] is GLP-1R K202A (Homo sapiens).
For experiment [18], the target named is GLP-1R M204A (Homo sapiens).
Experiment [19] addresses GLP-1R S206A (Homo sapiens).
Experiment [20] has as its target GLP-1R L141A (Homo sapiens).
In experiment [21] the target is wild-type cMyc-GLP-1R (human) (UniProt P43220).
Experiment [22] concerns the target cMyc-GLP-1R Y152A (human) (UniProt P43220).
Experiment [23] concerns the target GLP-1R S193A (Homo sapiens).
Experiment [24] has as its target GLP-1R L201A (Homo sapiens).
The target in experiment [25] is cMyc-GLP-1R Y148A (human) (UniProt P43220). The source holds these as a separate data set.
For another experiment, the target named is exendin-4, P26349. The experiment is described as follows: radioligand competition binding on whole cells. The settings on record: chain shown with the change;; parent: est. 0; read off a plot.

Numbering of substitutions follows the chain as printed. Names and notes keep the numbering of the source. Read-outs that look alike come from different tables or passages of the source.

With “wild-type cMyc-GLP-1R (from UniProt P43220) E364A”, the log10 ratio in the experiment with exendin-P5 [1] was -0.95 pIC50 ΔWT; in the experiment with exendin-P5 [2] it was -1 pIC50 ΔWT.
For the molecule “wild-type cMyc-GLP-1R (from UniProt P43220) E387A”, the log10 ratio with exendin-P5 [1] and with exendin-P5 [2] was -1.1 pIC50 ΔWT in each case.
Consider “wild-type cMyc-GLP-1R (from UniProt P43220) W297A”, for which the log10 ratio was -1.3 pIC50 ΔWT with exendin-P5 [1] and -1.2 pIC50 ΔWT with exendin-P5 [2].
Take exendin-P5: the half-inhibitory concentration (IC50) (in general, the concentration at which inhibition is half-maximal) in the experiment with GLP-1R L201A was found to be 251 nM; with GLP-1R V194A, 182 nM; in [3], 135 nM; with GLP-1R H212A it was 282 nM; with GLP-1R K202A, 170 nM; in the experiment with GLP-1R E138A, 60.3 nM. Also, the IC50 is 46.8 nM with GLP-1R Y145A; 501 nM with GLP-1R Q210A; 269 nM with GLP-1R S206A; 257 nM in the experiment with GLP-1R L144A; 191 nM in the experiment with GLP-1R D198A; 75.9 nM with GLP-1R S193A. Also, the IC50 was found to be 69.2 nM with GLP-1R Y205A; 102 nM with GLP-1R L141A; 437 nM with GLP-1R P137A; 240 nM with GLP-1R Q211A; 537 nM in the experiment with GLP-1R L142A; 67.6 nM in the experiment with GLP-1R M204A.
exendin-4 (from UniProt P26349 48-87): the IC50 in experiment [4] is 3.89 nM; in experiment [5], 0.479 nM; in experiment [6] it was 4.37 nM; in experiment [7] it was 0.617 nM; in [8] it was 407 nM; in experiment [9], 0.661 nM. The IC50 in experiment [10] was found to be 11.7 nM; in [11], 2.09 nM; in experiment [12], 8.91 nM; in [13], 0.692 nM; in [14], 0.741 nM; in experiment [15], 25.1 nM. The IC50 in [16] was determined as 162 nM; in experiment [17], 1.91 nM; in [18], 17.8 nM; in experiment [19], 2.19 nM; in experiment [20] it was 4.9 nM; in experiment [21], 0.891 nM. Also, the 50% inhibitory concentration (IC50) in experiment [22] came to 38 nM; in [23] it was 1.38 nM; in experiment [24], 3.47 nM; in experiment [25], 7.76 nM.

B1: wild-type cMyc-GLP-1R, P43220 K197A (protein)
chain: RPQGATVSLWETVQKWREYRRQCQRSLTEDPPPATDLFCNRTFDEYACWPDGEPGSFVNVSCPWYLPWASSVPQGHVYRFCTAEGLWLQKDNSSLPWRDLSECEESKRGERSSPEEQLLFLYIIYTVGYALSFSALVIASAILLGFRHLHCTRNYIHLNLFASFILRALSVFIADAALKWMYSTAAQQHQWDGLLSYQDSLSCRLVFLLMQYCVAANYYWLLVEGVYLYTLLAFSVLSEQWIFRLYVSIGWGVPLLFVVPWGIVKYLYEDEGCWTRNSNMNYWLIIRLPILFAIGVNFLIFVRVICIVVSKLKANLMCKTDIKCRLAKSTLTLIPLLGTHEVIFAFVMDEHARGTLRFIKLFTELSFTSFQGLMVAILYCFVNNEVQLEFRKSWERWRLEHLHIQRDSSMKPLKCPTSSLSSGATAGSSMYTATCQASCS
As to B1, the log10 ratio in the experiment with exendin-4, P26349 was -1.5 pIC50 ΔWT.

B2: wild-type cMyc-GLP-1R, P43220 R190A (protein)
chain: B1 chain with R167A, A174K
In the case of B2, the log10 ratio with exendin-4, P26349 was -2.6 pIC50 ΔWT.

B3: wild-type cMyc-GLP-1R, P43220 W297A (protein)
chain: B1 chain with A174K, W274A
As to B3, the log10 ratio with exendin-4, P26349 is -1.5 pIC50 ΔWT.
